Laboratory results taken from patent US20220049017A1 (KYMAB, published 2022).

Legend:
[1] = target: T1, human PCSK9 variant a (human, UniProt Q8NBP7 31-692); assay: ProteOn SPR, captured antibody, pH 5.8;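 further: antibodies captured on a GLC chip coated with anti-human Fc, rate constants from a 1:1 Langmuir fit of the sensorgrams, Kd derived from the fitted rates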
T1 construct: also called Human PCSK9 var A; hPCSK9a
Method: (§1) The SPR runs were performed using a GLC chip (Bio-Rad) immobilised with anti-human Fc antibodies. The analyte human antibodies were captured on the chip surface at 2 ug/ml. […] The chip surface was regenerated using two injections of 10 mM Glycine pH 1.5 for 160 seconds at 30 μl/min. The sensorgrams were then fitted with a 1:1 model (Langmuir kinetic model) where ka and kd are fitted and KD was calculated by the ProteOn software.

[2] = target: T2, mouse PCSK9 (mouse, UniProt Q80W65 35-694, limits assumed); assay: ProteOn SPR, captured antibody, pH 5.8;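 further: antibodies captured on a GLC chip coated with anti-human Fc, rate constants from a 1:1 Langmuir fit of the sensorgrams, Kd derived from the fitted rates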
T2 construct: also called mPCSK9; PCSK9 mouse
T2 sequence (Q80W65 35-694 limits assumed): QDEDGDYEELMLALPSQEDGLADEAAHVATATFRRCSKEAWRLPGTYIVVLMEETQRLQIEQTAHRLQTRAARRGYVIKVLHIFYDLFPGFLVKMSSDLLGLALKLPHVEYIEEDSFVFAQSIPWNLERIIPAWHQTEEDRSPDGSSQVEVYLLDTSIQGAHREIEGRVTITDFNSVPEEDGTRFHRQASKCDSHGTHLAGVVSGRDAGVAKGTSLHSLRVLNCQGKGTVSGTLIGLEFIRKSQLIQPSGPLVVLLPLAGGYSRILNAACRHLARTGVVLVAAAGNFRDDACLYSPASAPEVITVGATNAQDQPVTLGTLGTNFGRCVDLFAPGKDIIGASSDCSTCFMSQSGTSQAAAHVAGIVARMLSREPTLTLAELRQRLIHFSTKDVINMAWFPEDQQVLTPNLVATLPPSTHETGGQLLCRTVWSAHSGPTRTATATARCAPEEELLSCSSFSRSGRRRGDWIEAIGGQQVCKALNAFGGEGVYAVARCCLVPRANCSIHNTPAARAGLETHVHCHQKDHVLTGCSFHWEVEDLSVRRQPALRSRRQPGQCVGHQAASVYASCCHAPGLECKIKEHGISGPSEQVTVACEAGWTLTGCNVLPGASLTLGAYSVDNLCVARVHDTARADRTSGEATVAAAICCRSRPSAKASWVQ
Method: as §1

[3] = target: T3, human PCSK9 variant b (human, UniProt Q8NBP7 31-692); assay: ProteOn SPR, captured antibody, pH 5.8;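 further: antibodies captured on a GLC chip coated with anti-human Fc, rate constants from a 1:1 Langmuir fit of the sensorgrams, Kd derived from the fitted rates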
T3 construct: also called Human PCSK9 var B; hPCSK9b
Method: as §1

[4] = target: T4, human PCSK9 D374Y gain-of-function mutant (human, UniProt Q8NBP7 31-692); assay: ProteOn SPR, captured antibody, pH 5.8;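 further: antibodies captured on a GLC chip coated with anti-human Fc, rate constants from a 1:1 Langmuir fit of the sensorgrams, Kd derived from the fitted rates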
T4 construct: It was AF647-labelled in the HepG2 cell-based assay and unlabelled in SPR; also called Human PCSK9 GOF; hPCSK9 GOF
Method: as §1

[5] = target: T5, human PCSK9 reference (human, UniProt Q8NBP7 31-692); assay: ProteOn SPR, captured antibody, pH 5.8
Method: as §1

[6] = target: T6, cynomolgus monkey PCSK9 (cynomolgus monkey, UniProt A8T662 31-692 (Macaca nemestrina entry), limits assumed); assay: ProteOn SPR, captured antibody, pH 5.8
T6 construct: also called Cyno PCSK9; cynoPCSK9
T6 sequence (A8T662 31-692 limits assumed): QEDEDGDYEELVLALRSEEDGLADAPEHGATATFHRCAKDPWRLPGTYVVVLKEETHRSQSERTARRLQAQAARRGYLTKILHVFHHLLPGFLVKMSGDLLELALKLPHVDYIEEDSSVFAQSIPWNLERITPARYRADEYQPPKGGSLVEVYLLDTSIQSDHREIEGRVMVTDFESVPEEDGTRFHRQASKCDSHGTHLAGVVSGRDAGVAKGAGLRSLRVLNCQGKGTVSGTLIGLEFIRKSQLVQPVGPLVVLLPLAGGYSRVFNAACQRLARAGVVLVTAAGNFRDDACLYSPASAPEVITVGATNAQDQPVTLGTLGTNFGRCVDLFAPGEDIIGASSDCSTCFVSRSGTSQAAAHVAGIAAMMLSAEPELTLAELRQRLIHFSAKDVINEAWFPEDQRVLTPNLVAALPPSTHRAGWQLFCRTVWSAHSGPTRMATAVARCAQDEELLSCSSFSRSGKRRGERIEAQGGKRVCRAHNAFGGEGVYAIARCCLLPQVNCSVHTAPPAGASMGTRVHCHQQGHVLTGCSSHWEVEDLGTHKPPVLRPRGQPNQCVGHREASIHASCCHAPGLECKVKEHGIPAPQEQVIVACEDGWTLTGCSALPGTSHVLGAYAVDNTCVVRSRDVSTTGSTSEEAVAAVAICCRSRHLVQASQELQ
Method: as §1

[7] = target: T1, human PCSK9 variant a; assay: ProteOn SPR, captured antibody, pH 7.6;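 further: antibodies captured via anti-human Fc on a GLC sensor chip, PCSK9 binding sensorgrams fitted to a 1:1 Langmuir model giving on and off rates, with KD derived from them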
Method: as §1

[8] = target: T2, mouse PCSK9; assay: ProteOn SPR, captured antibody, pH 7.6;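 further: antibodies captured via anti-human Fc on a GLC sensor chip, PCSK9 binding sensorgrams fitted to a 1:1 Langmuir model giving on and off rates, with KD derived from them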
Method: as §1

[9] = target: T3, human PCSK9 variant b; assay: ProteOn SPR, captured antibody, pH 7.6;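 further: antibodies captured via anti-human Fc on a GLC sensor chip, PCSK9 binding sensorgrams fitted to a 1:1 Langmuir model giving on and off rates, with KD derived from them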
Method: as §1

[10] = target: T4, human PCSK9 D374Y gain-of-function …; assay: ProteOn SPR, captured antibody, pH 7.6;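 further: antibodies captured via anti-human Fc on a GLC sensor chip, PCSK9 binding sensorgrams fitted to a 1:1 Langmuir model giving on and off rates, with KD derived from them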
Method: as §1

[11] = target: T5, human PCSK9 reference; assay: ProteOn SPR, captured antibody, pH 7.6
Method: as §1

[12] = target: T6, cynomolgus monkey PCSK9; assay: ProteOn SPR, captured antibody, pH 7.6
Method: as §1

[13] = target: T3, human PCSK9 variant b; assay: ProteOn SPR, captured antibody, pH 5.8; value is the lower detection limit
Method: as §1

[14] = target: T4, human PCSK9 D374Y gain-of-function …; assay: as above
Method: as §1

[15] = target: T5, human PCSK9 reference; assay: as above
Method: as §1

[16] = target: T1, human PCSK9 variant a; assay: ProteOn SPR, captured antibody, pH 5.8; value is the lower detection limit; pH 5.8
Method: as §1

[17] = target: T1, human PCSK9 variant a; assay: ProteOn SPR, captured antibody, pH 5.8; KD cannot be accurately determined
Method: as §1

[18] = target: T3, human PCSK9 variant b; assay: as above
Method: as §1

[19] = target: T4, human PCSK9 D374Y gain-of-function …; assay: as above
Method: as §1

[20] = target: T5, human PCSK9 reference; assay: as above
Method: as §1

B1: CL-148489 (antibody, V domains shown)
VH: EVQLVESGGGLVQPGRSLRLSCTASGFTFADYVMHWVRQTPGKGLEWVSGISWNSYSINYADSVKGRFTISRDNAQNSLYLQMNSLRAEDTALYFCAKDITYDLLTGYNYNYGLDVWGQGTTVTVSS
VL: DIVMTQTPLSLSVTPGQPASISCRSSQSLLHSDGKTYLYWYLQKPGQPPQLLIYEVSNRFSGVPDRFSGSGSGTDFTLKISRVEAEDVGLYYCMQSIQLPLTFGGGTKVEIK
notes: Human antibody with a kappa light chain
kon [1]: 1.25e+06 M⁻¹ s⁻¹
Kd [2]: 460 pM
koff [2]: 0.000632 s⁻¹
kon [2]: 1.38e+06 M⁻¹ s⁻¹
kon [3]: 1.54e+06 M⁻¹ s⁻¹
kon [4]: 1.37e+06 M⁻¹ s⁻¹
kon [5]: 1.5e+06 M⁻¹ s⁻¹
Kd [6]: 92.4 pM
koff [6]: 0.000121 s⁻¹
kon [6]: 1.31e+06 M⁻¹ s⁻¹
Kd [7]: 175 pM
koff [7]: 0.000157 s⁻¹
kon [7]: 894000 M⁻¹ s⁻¹
Kd [8]: 2690 pM
koff [8]: 0.00192 s⁻¹
kon [8]: 714000 M⁻¹ s⁻¹
Kd [9]: 193 pM
koff [9]: 0.000164 s⁻¹
kon [9]: 848000 M⁻¹ s⁻¹
Kd [10]: 136 pM
koff [10]: 0.000129 s⁻¹
kon [10]: 947000 M⁻¹ s⁻¹
Kd [11]: 176 pM
koff [11]: 0.000163 s⁻¹
kon [11]: 924000 M⁻¹ s⁻¹
Kd [12]: 50.6 pM
koff [12]: 5.73e-05 s⁻¹
kon [12]: 1.13e+06 M⁻¹ s⁻¹
koff [13]: ≤ 1e-05 s⁻¹
koff [14]: ≤ 1e-05 s⁻¹
koff [15]: ≤ 1e-05 s⁻¹
koff [16]: ≤ 1e-05 s⁻¹
Kd [17]: < 8 pM
Kd [18]: < 6.49 pM
Kd [19]: < 7.3 pM
Kd [20]: < 6.67 pM
